Data: patent US20150086555A1
Numbering of substitutions follows the chain as printed.

B1: TCN-552 (5249_I23) (antibody, V domains shown)
VH: QVQVVQSGAEVKKPGSSVRVSCQASGGTFMNYAIIWVRRAPGQGLEWMGGIIPVFPTPNYAQMFQGRVTISTDESRSTSFLELTNLRYEDTAVYYCARRIYHGGNSGFDFWGQGTLVTVSS
VL: EIVLTQSPATLSLSPGERATLSCRASQSVGNYLAWYQQKPGQAPRLLIYDSSNRAPGIPARFSGSGSGTDFTLTISSLAPEDFAVYYCQQRSKWPPMYSFGHGTKLEIK
B2: TCN-539 (5056_A08) (antibody, V domains shown)
VH: QVQLVESGGGVVQPGRSLRLSCAASEITFITYAMHWVRQAPGKGLEWVALISDDGSNKFYADSVKGRFTISRDNSKNTLYLQMNSLRAEDTAAYYCAREGVYFDSGTYRGYFDYWGQETLVTVSS
VL: EIVLTQSPATLSLSPGERATLSCRASQSVSSYLAWYQQKPGQAPRLLIYDASNRATGIPARFSGSGSGTDFTLTISSLEPEDFAVYYCQQRSHWPPITFGQGTRLEIK
B3: TCN-555 (5246_L16) (antibody, V domains shown)
VH: QVQLVQSGAEVKRPGSSVKVSCTASGGIFRKNAISWVRQAPGQGLEWMGGIIAVFNTANYAQKFQNRVKITADESGNTAYMELSSLTSDDTAVYYCASHPKYFYGSGSYPDFWGQGTLVTVSS
VL: QSALTQPRSVSGSPGQSITISCTGGSSDIGASNSVSWYQQHPGKAPKLVIFDVTERPSGVPHRFSGSKSGNTASLTVSGLQPDDEADYFCCAYGGKYLVVFGGGTKVTVL
B4: TCN-563 (5237_B21) (antibody, V domains shown)
VH: B3 VH with V5A, N66G, T87R
VL: B3 VL with I18V, G25S, I29V, F51Y, D83E

The binders below were run against recombinant soluble homotrimeric HA of A/Anhui/1/05 (H5N1) (Influenza A virus A/Anhui/1/2005(H5N1)) (assay: HA microarray, BCC supernatant). Settings: remark: other sources report otherwise.

Row | Binder | Trimeric HA Binding: RLU [RLU]
1 | B1 | 4160
2 | B2 | 91
3 | B3 | 1500
4 | B4 | 9580

The binders below were run against recombinant soluble homotrimeric HA of A/California/4/09 (H1N1) (Influenza A virus A/California/04/2009(H1N1)) (assay: HA microarray, BCC supernatant). Settings: remark: other sources report otherwise.

Row | Binder | Trimeric HA Binding: RLU [RLU]
5 | B1 | 35300
6 | B3 | 44900
7 | B4 | 45200

What follows are binders tested against recombinant soluble homotrimeric HA of A/Indonesia/5/05 (H5N1) (Influenza A virus A/Indonesia/5/2005(H5N1)) (assay: HA microarray, BCC supernatant). Settings: remark: other sources report otherwise.

Row | Binder | Trimeric HA Binding: RLU [RLU]
8 | B1 | 43600
9 | B3 | 34500
10 | B4 | 39500

Each binder was assayed against recombinant soluble homotrimeric HA of A/Japan/305/57 (H2N2) (Influenza A virus A/Japan/305/1957(H2N2)) (assay: HA microarray, BCC supernatant). Settings: remark: other sources report otherwise.

Row | Binder | Trimeric HA Binding: RLU [RLU]
11 | B1 | 23800
12 | B2 | 468
13 | B3 | 2130
14 | B4 | 6610

What follows are binders tested against recombinant soluble homotrimeric HA of A/Netherlands/219/03 (H7N7) (Influenza A virus A/Netherlands/219/03(H7N7)) (assay: HA microarray, BCC supernatant). Settings: remark: other sources report otherwise.

Row | Binder | Trimeric HA Binding: RLU [RLU]
15 | B1 | 1240
16 | B2 | 1700
17 | B3 | 3400
18 | B4 | 7520

The binders below were run against recombinant soluble homotrimeric HA of A/Solomon Islands/3/06 (H1N1) (Influenza A virus A/Solomon Islands/3/2006(H1N1)) (assay: HA microarray, BCC supernatant). Settings: remark: other sources report otherwise.

Row | Binder | Trimeric HA Binding: RLU [RLU]
19 | B1 | 39300
20 | B2 | 239
21 | B3 | 26400
22 | B4 | 30000

What follows are binders tested against recombinant soluble homotrimeric HA of A/Vietnam/1203/04 (H5N1) (Influenza A virus A/VietNam/1203/2004(H5N1)) (assay: HA microarray, BCC supernatant). Settings: remark: other sources report otherwise.

Row | Binder | Trimeric HA Binding: RLU [RLU]
23 | B1 | 2730
24 | B2 | 545
25 | B3 | 876
26 | B4 | 4840

What follows are binders tested against recombinant soluble homotrimeric HA of A/Wisconsin/67/05 (H3N2) (Influenza A virus A/Wisconsin/67/2005(H3N2)) (assay: HA microarray, BCC supernatant). Settings: remark: other sources report otherwise.

Row | Binder | Trimeric HA Binding: RLU [RLU]
27 | B1 | 14800
28 | B2 | 715
29 | B3 | 9800
30 | B4 | 40800

These binders were tested against recombinant soluble homotrimeric HA of A/chicken/Vietnam/NCVD-016/08 (H5N1) (Influenza A virus A/chicken/Vietnam/NCVD-016/2008(H5N1)) (assay: HA microarray, BCC supernatant). Settings: remark: other sources report otherwise.

Row | Binder | Trimeric HA Binding: RLU [RLU]
31 | B1 | 46200
32 | B2 | 100
33 | B3 | 22300
34 | B4 | 41000

The binders below were run against recombinant soluble homotrimeric HA of A/duck/Yangzhou/02/05 (H8N4) (Influenza A virus A/duck/Yangzhou/02/2005(H8N4)) (assay: HA microarray, BCC supernatant). Settings: remark: other sources report otherwise.

Row | Binder | Trimeric HA Binding: RLU [RLU]
35 | B1 | 13100
36 | B3 | 18400
37 | B4 | 46700

The binders below were run against recombinant soluble homotrimeric HA of A/northern shoveler/California/HKWF115/07 (H6) (Influenza A virus A/northern shoveler/California/HKWF115/2007(H6N1)) (assay: HA microarray, BCC supernatant). Settings: remark: other sources report otherwise.

Row | Binder | Trimeric HA Binding: RLU [RLU]
38 | B1 | 38400
39 | B2 | 814
40 | B3 | 49500
41 | B4 | 27300

The binders below were run against recombinant soluble homotrimeric HA of A/swine/Ontario/01911-2/99 (H4N6) (Influenza A virus A/Swine/Ontario/01911-2/99 (H4N6)) (assay: HA microarray, BCC supernatant). Settings: remark: other sources report otherwise.

Row | Binder | Trimeric HA Binding: RLU [RLU]
42 | B2 | 1580
43 | B4 | 4500

The binders below were run against recombinant homotrimeric HA A/Anhui/1/05 H5N1 (Influenza A virus A/Anhui/1/2005(H5N1)) (assay: protein microarray, purified IgG, trimeric HA). Settings: remark: other sources report otherwise.

Row | Binder | Trimeric HA Binding: RLU [RLU]
44 | B1 | 4520
45 | B2 | 570
46 | B3 | 6630

Each binder was assayed against recombinant homotrimeric HA A/California/4/09 H1N1 (Influenza A virus A/California/04/2009(H1N1)) (assay: protein microarray, purified IgG, trimeric HA). Settings: remark: other sources report otherwise.

Row | Binder | Trimeric HA Binding: RLU [RLU]
47 | B1 | 23900
48 | B2 | 129
49 | B3 | 25500

The binders below were run against recombinant homotrimeric HA A/Egypt/3300-NAMRU3/08 H5N1 (Influenza A virus A/Egypt/3300-NAMRU3/2008(H5N1)) (assay: protein microarray, purified IgG, trimeric HA). Settings: remark: other sources report otherwise.

Row | Binder | Trimeric HA Binding: RLU [RLU]
50 | B1 | 20300
51 | B3 | 20200

These binders were tested against recombinant homotrimeric HA A/Hong Kong/1073/99 H9N2 (Influenza A virus A/Hong Kong/1073/99 (H9N2)) (assay: protein microarray, purified IgG, trimeric HA). Settings: remark: other sources report otherwise.

Row | Binder | Trimeric HA Binding: RLU [RLU]
52 | B2 | 416
53 | B3 | 3440

These binders were tested against recombinant homotrimeric HA A/Hong Kong/156/97 H5N1 (Influenza A virus A/Hong Kong/156/97 (H5N1)) (assay: protein microarray, purified IgG, trimeric HA). Settings: remark: other sources report otherwise.

Row | Binder | Trimeric HA Binding: RLU [RLU]
54 | B1 | 16200
55 | B2 | 103
56 | B3 | 13100

These binders were tested against recombinant homotrimeric HA A/Hong Kong/2108/03 H9N2 (Influenza A virus A/HK/2108/2003(H9N2)) (assay: protein microarray, purified IgG, trimeric HA). Settings: remark: other sources report otherwise.

Row | Binder | Trimeric HA Binding: RLU [RLU]
57 | B1 | 161
58 | B2 | 140
59 | B3 | 302

Each binder was assayed against recombinant homotrimeric HA A/Indonesia/5/05 H5N1 (Influenza A virus A/Indonesia/5/2005(H5N1)) (assay: protein microarray, purified IgG, trimeric HA). Settings: remark: other sources report otherwise.

Row | Binder | Trimeric HA Binding: RLU [RLU]
60 | B1 | 23600
61 | B3 | 15600

What follows are binders tested against recombinant homotrimeric HA A/Japan/305/57 H2N2 (Influenza A virus A/Japan/305/1957(H2N2)) (assay: protein microarray, purified IgG, trimeric HA). Settings: remark: other sources report otherwise.

Row | Binder | Trimeric HA Binding: RLU [RLU]
62 | B1 | 24700
63 | B2 | 544
64 | B3 | 10700

What follows are binders tested against recombinant homotrimeric HA A/Netherlands/219/03 H7N7 (Influenza A virus A/Netherlands/219/03(H7N7)) (assay: protein microarray, purified IgG, trimeric HA). Settings: remark: other sources report otherwise.

Row | Binder | Trimeric HA Binding: RLU [RLU]
65 | B1 | 470
66 | B2 | 161
67 | B3 | 1330

What follows are binders tested against recombinant homotrimeric HA A/Solomon Islands/3/06 H1N1 (Influenza A virus A/Solomon Islands/3/2006(H1N1)) (assay: protein microarray, purified IgG, trimeric HA). Settings: remark: other sources report otherwise.

Row | Binder | Trimeric HA Binding: RLU [RLU]
68 | B1 | 19400
69 | B2 | 1060
70 | B3 | 17900

These binders were tested against recombinant homotrimeric HA A/South Carolina/1/18 H1N1 (Influenza A virus A/South Carolina/1/18 (H1N1)) (assay: protein microarray, purified IgG, trimeric HA). Settings: remark: other sources report otherwise.

Row | Binder | Trimeric HA Binding: RLU [RLU]
71 | B1 | 14200
72 | B2 | 60
73 | B3 | 13700

The binders below were run against recombinant homotrimeric HA A/Vietnam/1203/04 H5N1 (Influenza A virus A/VietNam/1203/2004(H5N1)) (assay: protein microarray, purified IgG, trimeric HA). Settings: remark: other sources report otherwise.

Row | Binder | Trimeric HA Binding: RLU [RLU]
74 | B1 | 27000
75 | B2 | 636
76 | B3 | 26500

These binders were tested against recombinant homotrimeric HA A/Wisconsin/67/05 H3N2 (Influenza A virus A/Wisconsin/67/2005(H3N2)) (assay: protein microarray, purified IgG, trimeric HA). Settings: remark: other sources report otherwise.

Row | Binder | Trimeric HA Binding: RLU [RLU]
77 | B1 | 123
78 | B2 | 8850
79 | B3 | 369

The binders below were run against recombinant homotrimeric HA A/chicken/Vietnam/NCVD-016/08 H5N1 (Influenza A virus A/chicken/Vietnam/NCVD-016/2008(H5N1)) (assay: protein microarray, purified IgG, trimeric HA). Settings: remark: other sources report otherwise.

Row | Binder | Trimeric HA Binding: RLU [RLU]
80 | B1 | 4300
81 | B2 | 144
82 | B3 | 4420

What follows are binders tested against recombinant homotrimeric HA A/northern shoveler/California/HKWF115/07 H6N4 (Influenza A virus A/northern shoveler/California/HKWF115/2007(H6N1)) (assay: protein microarray, purified IgG, trimeric HA). Settings: remark: other sources report otherwise.

Row | Binder | Trimeric HA Binding: RLU [RLU]
83 | B1 | 8970
84 | B2 | 124
85 | B3 | 15600
